In publication PMC7764039:

B1: A1R, untagged (plasmid ARJ194: pCEP4 A1R) (receptor)
chain: MPPSISAFQAAYIGIEVLIALVSVPGNVLVIWAVKVNQALRDATFCFIVSLAVADVAVGALVIPLAILINIGPQTYFHTCLMVACPVLILTQSSILALLAIAVDRYLRVKIPLRYKMVVTPRRAAVAIAGCWILSFVVGLTPMFGWNNLSAVERAWAANGSMGEPVIKCEFEKVISMEYMVYFNFFVWVLPPLLLMVLIYLEVFYLIRKQLNKKVSASSGDPQKYYGKELKIAKSLALILFLFALSWLPLHILNCITLFCPSCHKPSILTYIAIFLTHGNSAMNPIVYAFRIQKFRVTFLKIWNDHFRCQPAPPIDEDLPEERPDD

Biological target: Gαi (endogenous in HEK-293 cells) (human (endogenous in HEK-293)) (UniProt P63096)
Chain of UniProt P63096 (P63096 whole entry): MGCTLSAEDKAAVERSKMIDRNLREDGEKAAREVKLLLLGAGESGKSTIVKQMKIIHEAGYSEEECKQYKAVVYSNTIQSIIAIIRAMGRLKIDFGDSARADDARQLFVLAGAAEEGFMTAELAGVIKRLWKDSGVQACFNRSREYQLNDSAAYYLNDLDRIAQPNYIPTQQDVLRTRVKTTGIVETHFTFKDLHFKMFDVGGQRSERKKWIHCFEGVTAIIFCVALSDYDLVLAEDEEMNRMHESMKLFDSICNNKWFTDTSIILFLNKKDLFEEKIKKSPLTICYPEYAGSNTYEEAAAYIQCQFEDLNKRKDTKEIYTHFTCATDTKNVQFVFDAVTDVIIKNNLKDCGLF

| reduction in cAMP signaling in transiently transfected HEK-293 cells, 1 µM CPA with 10 μM forskolin, normalized to forskolin treated cells [%] | Molecule |
| --- | --- |
| 72 | A1/A2AR chimera, untagged (plasmid ARJ195: pCEP4 A1/A2AR) (from UniProt P30542 1-290; P29274 291-412) (receptor) |
| 67 | A1/A2AΔ316R truncated chimera, untagged (plasmid ARJ196: pCEP4 A1/A2AΔ316R) (from UniProt P30542 1-290; P29274 291-316) (receptor) |
| 62 | B1 |
